Data as given in paper PMC11089037, “Structural basis of negative regulation of CRISPR-Cas7-11 by TPR-CHAT”.

Columns and labels:
DiCas7-11;DiTPR-CHAT NTD = DiCas7-11;DiTPR-CHAT NTD (Desulfonema ishimotonii;Desulfonema …, UniProt A0A401FT36;A0A401FT52 1-1601;1-65, |); assay: cryo-EM; with TPR-CHAT NTD; EMSA: 40 mM Tris-HCl pH 7.5, 60 mM NaCl, 6 mM MgCl2, 30 min at 4 C; 15% native PAGE; cryo-EM samples: 20 mM HEPES-NaOH pH 8.0, 300 mM NaCl, 0.5 mM DTT; conditions: protein: recombinant;recombinant; tags: N-terminal 8xHis-SUMO-TEV;C-terminal 2xStrep; copies: 1;1; single strand, V-shaped 5' repeat
DiCas7-11 = DiCas7-11 (Desulfonema ishimotonii, UniProt A0A401FT36 1-1601); assay: cryo-EM; EMSA: 40 mM Tris-HCl pH 7.5, 60 mM NaCl, 6 mM MgCl2, 30 min at 4 C; 15% native PAGE; cryo-EM samples: 20 mM HEPES-NaOH pH 8.0, 300 mM NaCl, 0.5 mM DTT; conditions: protein: recombinant; tags: N-terminal 8xHis-SUMO-TEV; single strand, V-shaped 5' repeat
DiCas7-11;DiTPR-CHAT = DiCas7-11;DiTPR-CHAT (Desulfonema ishimotonii;Desulfonema …, UniProt A0A401FT36;A0A401FT52 1-1601;1-751, |); assay: cryo-EM; with full-length TPR-CHAT; EMSA: 40 mM Tris-HCl pH 7.5, 60 mM NaCl, 6 mM MgCl2, 30 min at 4 C; 15% native PAGE; cryo-EM samples: 20 mM HEPES-NaOH pH 8.0, 300 mM NaCl, 0.5 mM DTT; conditions: protein: recombinant;recombinant; tags: N-terminal 8xHis-SUMO-TEV;C-terminal 2xStrep; copies: 1;1; single strand, V-shaped 5' repeat
DiCas7-11Inactive = DiCas7-11Inactive (Desulfonema ishimotonii, UniProt A0A401FT36 1-1601, D429A;D654A); assay: cryo-EM; pre-crRNA at 1:2 molar ratio; target RNA not seen in the map; EMSA: 40 mM Tris-HCl pH 7.5, 60 mM NaCl, 6 mM MgCl2, 30 min at 4 C; 15% native PAGE; cryo-EM samples: 20 mM HEPES-NaOH pH 8.0, 300 mM NaCl, 0.5 mM DTT; conditions: protein: recombinant; tags: N-terminal 8xHis-SUMO-TEV
DiCas7-11Inactive, sequence (A0A401FT36 entry or part of it D429A;D654A): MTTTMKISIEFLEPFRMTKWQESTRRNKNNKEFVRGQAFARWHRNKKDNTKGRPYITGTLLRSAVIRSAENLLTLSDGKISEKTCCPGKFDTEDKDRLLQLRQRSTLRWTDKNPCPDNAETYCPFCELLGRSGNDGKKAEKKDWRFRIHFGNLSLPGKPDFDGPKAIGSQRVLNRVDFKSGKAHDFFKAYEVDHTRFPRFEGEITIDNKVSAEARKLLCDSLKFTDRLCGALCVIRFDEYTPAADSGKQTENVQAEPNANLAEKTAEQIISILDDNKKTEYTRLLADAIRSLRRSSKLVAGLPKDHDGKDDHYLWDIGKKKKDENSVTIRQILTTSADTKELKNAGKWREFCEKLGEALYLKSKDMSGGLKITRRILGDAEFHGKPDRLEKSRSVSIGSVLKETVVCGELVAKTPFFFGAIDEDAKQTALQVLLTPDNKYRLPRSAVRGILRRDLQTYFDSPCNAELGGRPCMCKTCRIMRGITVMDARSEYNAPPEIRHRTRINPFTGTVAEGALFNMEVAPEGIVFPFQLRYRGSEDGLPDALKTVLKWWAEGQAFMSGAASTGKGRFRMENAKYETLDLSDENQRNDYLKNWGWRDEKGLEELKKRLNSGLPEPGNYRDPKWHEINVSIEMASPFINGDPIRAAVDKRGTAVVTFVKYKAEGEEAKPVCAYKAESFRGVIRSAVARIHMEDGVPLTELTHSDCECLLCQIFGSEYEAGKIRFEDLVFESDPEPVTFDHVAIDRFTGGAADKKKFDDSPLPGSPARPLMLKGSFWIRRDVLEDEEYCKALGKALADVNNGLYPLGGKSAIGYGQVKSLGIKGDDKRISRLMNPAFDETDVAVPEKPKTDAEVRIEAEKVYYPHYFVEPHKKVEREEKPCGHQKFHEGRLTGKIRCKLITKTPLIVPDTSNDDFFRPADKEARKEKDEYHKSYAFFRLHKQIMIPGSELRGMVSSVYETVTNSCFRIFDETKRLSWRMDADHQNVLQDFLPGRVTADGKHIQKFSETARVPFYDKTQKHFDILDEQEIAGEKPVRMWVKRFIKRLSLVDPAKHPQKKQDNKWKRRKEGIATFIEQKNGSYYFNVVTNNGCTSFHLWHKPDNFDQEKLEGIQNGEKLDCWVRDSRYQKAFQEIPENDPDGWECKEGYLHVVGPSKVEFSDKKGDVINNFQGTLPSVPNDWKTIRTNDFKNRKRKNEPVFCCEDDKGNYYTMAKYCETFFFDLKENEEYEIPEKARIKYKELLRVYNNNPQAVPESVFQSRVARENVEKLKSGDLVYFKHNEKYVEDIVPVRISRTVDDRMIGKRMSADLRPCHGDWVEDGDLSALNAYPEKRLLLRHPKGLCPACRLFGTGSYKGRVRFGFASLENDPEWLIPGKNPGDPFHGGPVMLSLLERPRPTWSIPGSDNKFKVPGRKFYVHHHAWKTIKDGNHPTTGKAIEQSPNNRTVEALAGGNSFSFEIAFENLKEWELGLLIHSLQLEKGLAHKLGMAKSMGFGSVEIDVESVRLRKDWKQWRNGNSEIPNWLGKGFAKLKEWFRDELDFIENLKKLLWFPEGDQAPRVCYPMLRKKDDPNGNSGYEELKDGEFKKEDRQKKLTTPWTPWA

DiCas7-11;DiTPR-CHAT, sequence (chain, as listed by the source |, chain 1 of 2): as the sequence (A0A401FT36 entry or part of it D429A;D654A) above, with A429D, A654D counted along it
DiCas7-11;DiTPR-CHAT, sequence (chain, as listed by the source |, chain 2 of 2): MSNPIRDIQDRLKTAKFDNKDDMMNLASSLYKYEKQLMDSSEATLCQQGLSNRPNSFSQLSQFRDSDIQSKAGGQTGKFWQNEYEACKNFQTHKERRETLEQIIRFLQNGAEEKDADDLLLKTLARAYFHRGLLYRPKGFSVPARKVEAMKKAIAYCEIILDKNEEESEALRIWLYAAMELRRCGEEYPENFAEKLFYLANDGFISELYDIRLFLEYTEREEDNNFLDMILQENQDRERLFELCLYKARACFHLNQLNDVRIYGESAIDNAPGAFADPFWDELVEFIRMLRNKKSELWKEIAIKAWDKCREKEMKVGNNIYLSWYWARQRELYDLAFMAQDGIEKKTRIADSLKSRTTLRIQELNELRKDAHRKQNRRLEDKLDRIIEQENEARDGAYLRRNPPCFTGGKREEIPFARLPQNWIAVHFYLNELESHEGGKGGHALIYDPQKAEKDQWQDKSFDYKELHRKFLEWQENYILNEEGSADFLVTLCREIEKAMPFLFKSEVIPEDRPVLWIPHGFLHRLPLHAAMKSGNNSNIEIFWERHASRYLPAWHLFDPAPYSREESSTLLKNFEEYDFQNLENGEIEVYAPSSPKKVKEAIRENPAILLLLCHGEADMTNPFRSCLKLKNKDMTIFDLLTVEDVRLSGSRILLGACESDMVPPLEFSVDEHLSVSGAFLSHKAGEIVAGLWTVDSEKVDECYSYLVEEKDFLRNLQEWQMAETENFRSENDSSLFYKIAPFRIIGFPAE
DiCas7-11;DiTPR-CHAT NTD, sequence (chain, as listed by the source |, chain 1 of 2): as the sequence (A0A401FT36 entry or part of it D429A;D654A) above, with A429D, A654D counted along it
DiCas7-11;DiTPR-CHAT NTD, sequence (chain, as listed by the source |, chain 2 of 2): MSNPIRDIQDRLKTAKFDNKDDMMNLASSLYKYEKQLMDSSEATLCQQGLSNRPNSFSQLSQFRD
DiCas7-11, sequence (A0A401FT36 entry or part of it): as the sequence (A0A401FT36 entry or part of it D429A;D654A) above, with A429D, A654D counted along it

| Binder | binding result (DiCas7-11;DiTPR-CHAT NTD) | binding result (DiCas7-11) | binding result (DiCas7-11;DiTPR-CHAT) | binding result (DiCas7-11Inactive) |
| --- | --- | --- | --- | --- |
| UUGAUGUCACGGAACCUUUGUUGUCUUCGACAUGGGUA (structured_RNA) [mature crRNA in cryo-EM structures, U(-15)-A(23)] | binds | binds | binds |  |
| single spacer pre-crRNA (ssRNA) RNA: GGUUGGAAAGCCGGUUUUCUUUGAUGUCACGGAACCUUUGUUGUCUUCGACAUGGGUAAUCCUCAU |  |  |  | binds |
